The record followed here is patent publication JP2020188737A.

For experiment [1], the target named is ヒトFcγRIIIaを固定化した担体(分離剤)を詰めたカラム(FcR9_Fカラム、WO2018/150973号の実施例5に記載). The experiment is described as follows: FcγRIIIa affinity chromatography (FcR9_F column), peak area share; antibody from 9-day jar fermenter batch culture with 1 mM L-glutamine.
The target is the same in experiment [2]. Kind of experiment: FcγRIIIa affinity chromatography (FcR9_F column), peak area share; antibody from 9-day jar fermenter batch culture with 10 mM L-glutamine.

B1: 抗インターロイキン6レセプター(IL−6R)抗体 (antibody, human IgG1, V domains shown)
VH: QVQLQESGPGLVRPSQTLSLTCTVSGYSITSDHAWSWVRQPPGRGLEWIGYISYSGITTYNPSLKSRVTMLRDTSKNQFSLRLSSVTAADTAVYYCARSLARTTAMDYWGQGSLVTVSS
VL: DIQMTQSPSSLSASVGDRVTITCRASQDISSYLNWYQQKPGKAPKLLIYYTSRLHSGVPSRFSGSGSGTDFTFTISSLQPEDIATYYCQQGNTLPYTFGQGTKVEIK
For the molecule B1, the ピーク1(結合力が弱いピーク)の面積割合 in experiment [1] is 25%; in experiment [2] it was 42.3%. Also, the ピーク3(結合力が強いピーク)の面積割合 in experiment [1] was determined as 36%; in experiment [2] it was 22.1%.
